PMC3589417

Target: 14-3-3ε (UniProt P62258)
Experiment: anti-FLAG co-IP of HA-TAK1, immunoblot
Settings: reference: wild type

Sequence of UniProt P62258 (P62258 whole entry, looked up): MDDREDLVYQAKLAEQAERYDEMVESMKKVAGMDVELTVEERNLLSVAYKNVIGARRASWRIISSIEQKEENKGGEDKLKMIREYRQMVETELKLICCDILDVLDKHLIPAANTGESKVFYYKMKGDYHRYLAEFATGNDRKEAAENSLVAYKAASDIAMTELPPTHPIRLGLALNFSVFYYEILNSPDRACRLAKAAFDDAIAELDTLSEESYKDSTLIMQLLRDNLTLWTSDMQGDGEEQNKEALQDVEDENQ

TAK1 (MAP3K7) (from UniProt O43318-2) S192A
binding against the reference (sites S192): weaker

TAK1 (MAP3K7) (from UniProt O43318-2) T184A
binding against the reference (sites T184): weaker

TAK1 (MAP3K7) (from UniProt O43318-2) T187A
binding against the reference (sites T187): weaker
